These are literature values, as cited in PMC6375914.

pKd: −log10 of the molar value.

Data set [1] concerns the target Ubc9 (Homo sapiens) (UniProt P63279). The data set is described as follows: SPR.
Data set [2] shares this target. The data set is described as follows: ITC.

UniProt P63279, sequence (P63279 2-158): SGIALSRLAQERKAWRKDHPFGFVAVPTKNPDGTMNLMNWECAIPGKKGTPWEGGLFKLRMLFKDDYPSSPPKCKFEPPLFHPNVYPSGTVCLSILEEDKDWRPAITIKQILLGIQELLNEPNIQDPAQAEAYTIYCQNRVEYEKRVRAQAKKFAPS

As to SUMO1 (from UniProt P63165), the figures for the pKd with Ubc9 (Homo sapiens) [1] and in the data set with Ubc9 (Homo sapiens) [2] were 6.46 and 6.60, respectively.
